This is an account of results in the supplement of paper PMC12764529.

± gives the half width of the 95% confidence interval.

A short description of series [1]: folding stability dG unfold (combined trypsin and chymotrypsin); higher = more stable. Summed up: (§1)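 Designed mini-proteins with no cysteine and under 80 residues were kept only if AlphaFold2 dimer inter-PAE was above 15. In a PA-tagged cDNA display construct, they were digested with trypsin and chymotrypsin and then sequenced. K50 was inferred by Bayesian fitting of counts, and unfolding free energy was derived per protease or combined against a sequence-predicted unfolded-state K50 and a shared folded-state K50.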

Series [2] can be described thus: folding stability dG unfold from chymotrypsin proteolysis; higher = more stable. Summed up:
as §1

Series [3] is described as follows: folding stability dG unfold from trypsin proteolysis; higher = more stable. The gist of the method:
as §1

As for “SAGGSAGGSAGGSELIFKTEDGYYVKVKLKNGKTIVFPAENLEELKKLNVEKVEVVPAKSAGGSAGGSAGGS [r4_348_TrROS_Hall]”, the entries for the “folding stability dG unfold” value in series [1], in series [2] and in series [3] were 0.684 ± 0.064 kcal/mol, 0.831 ± 0.042 kcal/mol and 0.332 ± 0.039 kcal/mol, respectively.
The matching figures for “SAGGSAGGSAGGSEVEVLDSRPLPDGHHLVLVRFPDGSYALYRIYPDGSVEVEVFSDDGSAGGSAGGSAGGS [r4_483_TrMRF]”: 3.81 ± 0.084 kcal/mol, 4.205 ± 0.029 kcal/mol and 2.47 ± 0.066 kcal/mol.
The matching figures for “SAGGSAGGSAGGSFELVGLVSEFEDENGIPVRVFKAKNPLLGYEFLVVVLPNGEVFFLPSAGGSAGGSAGGS [r10_1123_TrMRF]”: 2.99 ± 0.089 kcal/mol, 3.124 ± 0.014 kcal/mol and 2.8 ± 0.053 kcal/mol.
The matching figures for “SAGGSAGGSAGGSFKVTYFPGEKLLAVTFPDGSKKIFKIDDKGNPTIIAVIDPDKGKVLPSAGGSAGGSAGG [r7_659_TrMRF]”: 2.35 ± 0.051 kcal/mol, 2.622 ± 0.02 kcal/mol and 1.86 ± 0.034 kcal/mol.
On to “SAGGSAGGSAGGSGMTLPIPLSELTTEEIRELTKPDEDLVIKTEEDEPVVIPYGEIKPESAGGSAGGSAGGS [r4_382_JUSTAS]”, for which the “folding stability dG unfold” value was 0.204 ± 0.077 kcal/mol in series [1], -1.05 ± 0.3 kcal/mol in series [2] and 0.694 ± 0.07 kcal/mol in series [3].
The matching figures for “SAGGSAGGSAGGSGMTLSVTVLEEKPERLPNGGTIITRTVRIPETGEVIEEVTYEPGALSAGGSAGGSAGGS [r4_94_JUSTAS]”: -0.092 ± 0.085 kcal/mol, 0.0529 ± 0.058 kcal/mol and -0.594 ± 0.17 kcal/mol.
With “SAGGSAGGSAGGSGMTPIPLEVLERKVTEYDPKNGKITVEALAILPDGTPVKLKFTVELSAGGSAGGSAGGS [r4_184_JUSTAS]”, the “folding stability dG unfold” value in series [1] came to 1.37 ± 0.22 kcal/mol; in series [2], 1.37 ± 0.18 kcal/mol; in series [3] it was 1.11 ± 0.042 kcal/mol.
For “SAGGSAGGSAGGSGPVPVTIKSVTTYPEKDVYKVETVPATPEPITITLSPEELSDVVILSAGGSAGGSAGGS [r4_51_JUSTAS]”, the “folding stability dG unfold” value in series [1] was -0.561 ± 0.19 kcal/mol; in series [2], -0.437 ± 0.2 kcal/mol; in series [3], -1.69 ± 0.57 kcal/mol.
The matching figures for “SAGGSAGGSAGGSGSITITYSSDGDKYSATFTVPDGTVVTVPNMSVDEAKKVAEKFLKSSAGGSAGGSAGGS [r4_383_JUSTAS]”: 0.659 ± 0.095 kcal/mol, 1.08 ± 0.12 kcal/mol and -0.389 ± 0.14 kcal/mol.
The matching figures for “SAGGSAGGSAGGSGVSITTTLPVKTTVLQPFNTFENKLLLKEVEKTILTTVTLTLPPLLSAGGSAGGSAGGS [r4_326_JUSTAS]”: 0.148 ± 0.21 kcal/mol, -0.0828 ± 0.29 kcal/mol and 0.316 ± 0.068 kcal/mol.
Turning to “SAGGSAGGSAGGSIVVETKKNPGPERVVTVKLPDGTPLADVPVSPDEDPEEAVKRALELGSAGGSAGGSAGG [r7_444_JUSTAS]”, the results for the “folding stability dG unfold” value in series [1], in series [2] and in series [3] were 0.386 ± 0.17 kcal/mol, 0.305 ± 0.037 kcal/mol and 0.0908 ± 0.071 kcal/mol, respectively.
The matching figures for “SAGGSAGGSAGGSKEIKVEVEEKDGKLTVTVTFPDGSKVEIEGMSAEEVEKLVKELAKKSAGGSAGGSAGGS [r4_383_TrROS_Hall]”: 2.06 ± 0.061 kcal/mol, 2.36 ± 0.1 kcal/mol and 1.4 ± 0.061 kcal/mol.
On the same counts, the results for “SAGGSAGGSAGGSKIYKLKVNGSVEKLIENLKKAGFKVEILSVYYDPETKELYVLFKISSAGGSAGGSAGGS [r4_315_TrMRF]” are 4.32 ± 0.079 kcal/mol, 4.57 ± 0.068 kcal/mol and 3.85 ± 0.1 kcal/mol.
The matching figures for “SAGGSAGGSAGGSKKEKYYLVTRIEVEVNGKKYPLGSKLPKNLPPGAKIKIETRIVKLDSAGGSAGGSAGGS [r4_436_TrROS_Hall]”: 1.83 ± 0.25 kcal/mol, 1.58 ± 0.071 kcal/mol and 2.35 ± 0.15 kcal/mol.
“SAGGSAGGSAGGSKKKIKIYIENENGEKKTIEIEVEGDIDEIAKELAKKYNVKIVKIEPSAGGSAGGSAGGS [r4_412_TrROS_Hall]”: the “folding stability dG unfold” value in series [1] stood at 3.05 ± 0.05 kcal/mol; in series [2], 3.16 ± 0.081 kcal/mol; in series [3], 2.77 ± 0.11 kcal/mol.
On the same counts, the results for “SAGGSAGGSAGGSKKTIKVRIKIEVDGKTYEITVELPEEGMSLEELLKKFPNAKITEIESAGGSAGGSAGGS [r4_278_TrROS_Hall]” are 3.22 ± 0.23 kcal/mol, 3.08 ± 0.17 kcal/mol and 3.15 ± 0.26 kcal/mol.
The matching figures for “SAGGSAGGSAGGSKKYKAKIVSVEYDEETKEVTIKVKLENGEEKTITMSLEELKEIELPSAGGSAGGSAGGS [r4_51_TrROS_Hall]”: 2.77 ± 0.079 kcal/mol, 3.15 ± 0.033 kcal/mol and 1.97 ± 0.081 kcal/mol.
On the same counts, the results for “SAGGSAGGSAGGSKLPEGAKITITKNEDGSYTLTVTFPNGEKVEITMSEDELKKLLEALSAGGSAGGSAGGS [r4_16_TrROS_Hall]” are 3.79 ± 0.14 kcal/mol, 3.64 ± 0.11 kcal/mol and 3.84 ± 0.15 kcal/mol.
Consider “SAGGSAGGSAGGSKNKKIKLGPEVKIKVKIEAKLEGGYSSENGLPEFKLDVKLEIGEVESAGGSAGGSAGGS [r10_877_TrMRF]”, for which the “folding stability dG unfold” value turned out to be 0.94 ± 0.26 kcal/mol in series [1], 1.09 ± 0.13 kcal/mol in series [2] and 0.727 ± 0.068 kcal/mol in series [3].
The matching figures for “SAGGSAGGSAGGSKPKKIKVETVTLEDGLTLQVVVNEDTKEKVIVLVPPSEEVTVLVEPSAGGSAGGSAGGS [r4_99_TrROS_Hall]”: 0.648 ± 0.15 kcal/mol, 1.11 ± 0.076 kcal/mol and -0.249 ± 0.31 kcal/mol.
The matching figures for “SAGGSAGGSAGGSKPKMYILKIKIKVEVKYDKETNEIVEEEIEIEIEIIEVKPGEKLELSAGGSAGGSAGGS [r4_175_TrROS_Hall]”: 2.52 ± 0.35 kcal/mol, 3.28 ± 0.092 kcal/mol and 1.42 ± 0.13 kcal/mol.
On the same counts, the results for “SAGGSAGGSAGGSKTKAELFKVGDKLILATYHPDTGKVEIFYPDNSVETLPAEEAEKLFSAGGSAGGSAGGS [r10_1140_TrMRF]” are 1.03 ± 0.14 kcal/mol, 0.957 ± 0.13 kcal/mol and 1.02 ± 0.052 kcal/mol.
In the case of “SAGGSAGGSAGGSKTLTPEEIKKLLDEAKKKGYKTVKITVKNKNGKTYTFTIKIPKEDLSAGGSAGGSAGGS [r4_342_TrROS_Hall]”, the entries for the “folding stability dG unfold” value in series [1], in series [2] and in series [3] were 2.95 ± 0.23 kcal/mol, 3.13 ± 0.079 kcal/mol and 2.76 ± 0.18 kcal/mol, respectively.
On the same counts, the results for “SAGGSAGGSAGGSLELTFLLEDGTLAKVRIELNEDGELSISVELFELPAPEPVEVRFYPESAGGSAGGSAGG [r7_79_TrROS_Hall]” are 2.42 ± 0.18 kcal/mol, 2.8 ± 0.084 kcal/mol and 1.42 ± 0.051 kcal/mol.
On the same counts, the results for “SAGGSAGGSAGGSLKVEVTLDPETNELTVRTTLTLPPPPPPPPTTTTTTTTTLAPGETASAGGSAGGSAGGS [r10_86_TrROS_Hall]” are 0.0927 ± 0.38 kcal/mol, 0.776 ± 0.22 kcal/mol and -0.349 ± 0.43 kcal/mol.
The matching figures for “SAGGSAGGSAGGSMELIPTPEDTVTVVETTPVAPTPNGTPVPATVTTTTLPKEEVEAAASAGGSAGGSAGGS [r4_238_JUSTAS]”: 2.1 ± 0.062 kcal/mol, 1.53 ± 0.03 kcal/mol and 2.71 ± 0.057 kcal/mol.
